Values belong to the binder of their own block, whether it stands above or below them.
How the values were obtained:
Experiment in all cases: two-hybrid
[1] = target: Gal4-SRC-1 (Steroid Receptor Coactivator-1) (UniProt Q15788 1-1441)
[2] = target: T1, Gal4-RXRα AF-1 (first 135 amino acids of human RXRα) (human, UniProt P19793 1-135)
T1 sequence (looked up): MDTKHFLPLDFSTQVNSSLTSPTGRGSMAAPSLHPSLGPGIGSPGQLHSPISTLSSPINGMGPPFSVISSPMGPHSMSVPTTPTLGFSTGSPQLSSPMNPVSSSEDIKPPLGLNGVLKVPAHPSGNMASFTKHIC

[3] = target: T2, Gal4-mouse RXRα ligand binding domain (LBD) (mouse, UniProt P28700 232-467)
T2 sequence (looked up): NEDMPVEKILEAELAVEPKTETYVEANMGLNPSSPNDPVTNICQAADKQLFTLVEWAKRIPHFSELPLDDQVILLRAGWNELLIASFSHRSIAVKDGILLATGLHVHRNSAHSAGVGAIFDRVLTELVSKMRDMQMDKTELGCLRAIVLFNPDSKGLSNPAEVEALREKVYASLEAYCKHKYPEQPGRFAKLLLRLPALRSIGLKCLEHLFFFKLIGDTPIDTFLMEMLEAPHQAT

Chain of Gal4-SRC-1 (Steroid Receptor Coactivator-1) (Q15788 whole entry, the tested form may be a part): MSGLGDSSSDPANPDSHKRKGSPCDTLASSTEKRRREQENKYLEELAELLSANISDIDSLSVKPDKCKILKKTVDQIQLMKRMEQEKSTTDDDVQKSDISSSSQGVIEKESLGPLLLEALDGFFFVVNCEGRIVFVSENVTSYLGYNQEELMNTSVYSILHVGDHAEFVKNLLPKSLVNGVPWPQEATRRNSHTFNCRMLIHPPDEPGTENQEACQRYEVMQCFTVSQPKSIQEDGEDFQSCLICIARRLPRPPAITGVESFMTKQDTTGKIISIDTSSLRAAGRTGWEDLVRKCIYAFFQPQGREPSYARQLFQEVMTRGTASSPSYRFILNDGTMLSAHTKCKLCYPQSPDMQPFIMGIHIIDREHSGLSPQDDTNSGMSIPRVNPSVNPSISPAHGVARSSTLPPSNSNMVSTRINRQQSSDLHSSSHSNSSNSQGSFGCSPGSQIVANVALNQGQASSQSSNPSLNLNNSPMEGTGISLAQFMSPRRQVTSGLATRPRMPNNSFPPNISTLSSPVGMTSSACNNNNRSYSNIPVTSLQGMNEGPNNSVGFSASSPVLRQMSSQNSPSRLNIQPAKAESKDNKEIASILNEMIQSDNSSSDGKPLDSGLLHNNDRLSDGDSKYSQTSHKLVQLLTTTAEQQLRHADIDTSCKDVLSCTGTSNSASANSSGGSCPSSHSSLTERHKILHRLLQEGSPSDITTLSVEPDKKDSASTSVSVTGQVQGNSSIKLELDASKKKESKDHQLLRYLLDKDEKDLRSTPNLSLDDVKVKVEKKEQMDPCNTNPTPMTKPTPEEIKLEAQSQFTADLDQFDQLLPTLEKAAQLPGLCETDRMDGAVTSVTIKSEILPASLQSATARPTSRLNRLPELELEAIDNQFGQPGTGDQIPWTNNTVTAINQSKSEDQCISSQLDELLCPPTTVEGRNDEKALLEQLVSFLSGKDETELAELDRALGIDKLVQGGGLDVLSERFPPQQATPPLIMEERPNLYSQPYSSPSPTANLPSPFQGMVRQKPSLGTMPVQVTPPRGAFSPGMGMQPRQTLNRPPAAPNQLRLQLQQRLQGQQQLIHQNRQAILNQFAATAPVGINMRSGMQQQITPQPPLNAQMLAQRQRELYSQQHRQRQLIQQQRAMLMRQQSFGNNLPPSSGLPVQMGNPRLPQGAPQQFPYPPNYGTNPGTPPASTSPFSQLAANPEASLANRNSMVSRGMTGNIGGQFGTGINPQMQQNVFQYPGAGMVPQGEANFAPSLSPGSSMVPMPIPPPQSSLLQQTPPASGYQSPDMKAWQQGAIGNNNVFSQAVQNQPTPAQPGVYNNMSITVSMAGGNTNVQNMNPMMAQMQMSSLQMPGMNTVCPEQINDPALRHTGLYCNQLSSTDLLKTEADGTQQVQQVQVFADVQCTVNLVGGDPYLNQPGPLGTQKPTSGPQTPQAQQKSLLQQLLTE

fold induction of the two-hybrid signal by 1,25(OH)2D3, RWPE1 cells [1]: 2.6 fold
B1: VP16-mouse RXRα-LBD (domain or fragment, UniProt P28700 232-467, looked up)
chain: T2 sequence (looked up)

two-hybrid signal above the empty GAL4 vector control, RWPE1 cells [2]: 8.2 fold
B2: VP16-SRC-1 (natural protein)
chain: not shown

fold induction of the two-hybrid signal by 1,25(OH)2D3, RWPE1 cells [3]: 111 fold
fold induction of the two-hybrid signal by 1,25(OH)2D3, RWPE2 cells [3]: 178 fold
fold induction of the two-hybrid signal by 1,25(OH)2D3, RWPE2 cells [1]: 10.4 fold
B3: VP16-rat VDR-LBD (domain or fragment, UniProt P13053 127-423, looked up)
chain: EQQHIIAILLDAHHKTYDPTYADFRDFRPPVRMDGSTGSYSPRPTLSFSGNSSSSSSDLYTTSLDMMEPSGFSNLDLNGEDSDDPSVTLDLSPLSMLPHLADLVSYSIQKVIGFAKMIPGFRDLTSDDQIVLLKSSAIEVIMLRSNQSFTMDDMSWDCGSQDYKYDVTDVSKAGHTLELIEPLIKFQVGLKKLNLHEEEHVLLMAICIVSPDRPGVQDAKLVEAIQDRLSNTLQTYIRCRHPPPGSHQLYAKMIQKLADLRSLNEEHSKQYRSLSFQPENSMKLTPLVLEVFGNEIS
